In data set [1] the target is recombinant protein LmPDI-(His)6 produced in E. coli (Leishmania major). Nature of the data set: cell-based or functional assay.
For data set [2], the target named is T1, scrambled RNase A (reduced and denatured ribonuclease A), P61823.
T1 chain: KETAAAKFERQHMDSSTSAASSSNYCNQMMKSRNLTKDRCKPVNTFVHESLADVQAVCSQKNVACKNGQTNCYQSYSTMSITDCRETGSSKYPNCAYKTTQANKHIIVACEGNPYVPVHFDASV

Turning to bacitracin (peptide), in data set [1], the inhibition of LmPDI activity (scrambled RNase A reactivation test) was determined as 2 mM, the inhibition of rLmPDI activity (scrambled RNase reactivation) (% inhibition at 0.1 mM) is 50, the inhibition of rLmPDI activity (scrambled RNase reactivation) (% inhibition at 0.5 mM) is 70 and the inhibition of rLmPDI activity (scrambled RNase reactivation) (% inhibition at 2 mM) amounted to 100.
For zinc bacitracin (peptide) the same measures were 2 mM, 50, 70 and 100.

B1: bovine protein disulfide-isomerase (protein)
chain: APDEEDHVLVLHKGNFDEALAAHKYLLVEFYAPWCGHCKALAPEYAKAAGKLKAEGSEIRLAKVDATEESDLAQQYGVRGYPTIKFFKNGDTASPKEYTAGREADDIVNWLKKRTGPAASTLSDGAAAEALVESSEVAVIGFFKDMESDSAKQFFLAAEVIDDIPFGITSNSDVFSKYQLDKDGVVLFKKFDEGRNNFEGEVTKEKLLDFIKHNQLPLVIEFTEQTAPKIFGGEIKTHILLFLPKSVSDYEGKLSNFKKAAESFKGKILFIFIDSDHTDNQRILEFFGLKKEECPAVRLITLEEEMTKYKPESDELTAEKITEFCHRFLEGKIKPHLMSQELPDDWDKQPVKVLVGKNFEEVAFDEKKNVFVEFYAPWCGHCKQLAPIWDKLGETYKDHENIVIAKMDSTANEVEAVKVHSFPTLKFFPASADRTVIDYNGERTLDGFKKFLESGGQDGAGDDDDLEDLEEAEEPDLEEDDDQKAVKDEL
For the molecule B1, in data set [2], the “reactivation of scrambled RNase A (RNase A activity at 296 nm)” value is given as “LmPDI is capable of restoring RNase A activity in a similar manner to that of bovine PDI, used as a control”.

B2: recombinant protein LmPDI-(His)6 produced in E. coli (protein)
chain: RESTAESLKLTKENFNETIAKSEIFLVKFYVDTCGYCQMLAPEWEKAANETIDNALMGEVDCHSQPELAANFSIRGYPTIILFRNGKEAEHYGGARTKDDIIKYIKANVGPAVTPASNAEEVTRAKEEHDVVCVGLTANNSTSLSTTLAEAAQSFRVSLKFFEAEPKLFPDEKPETIVVYRKGGEKEVYDGPMEVEKLTEFLQISRVAFGGEITPENYQYYSVIKRPVGWAMVKPNETASIELKESLTEVGKKMRSHMVVLWVNISKHPVWRDFGVPEDAKYPAFLAIHWGANYLHSTAEVVTRESLEKFILEFAAGRVEPTIKSLPVPEVETVDGKTTIVAKTMQKHLTSGKDMLILFFAPWCGHCKNFAPTFDKIAKEFDATDLIVAELDATANYVNSSTFTVTAFPTVFFVPNGGKPVVFEGERSFENVYEFVRKHVTTFKVSEKPANVTEEKKSEEENKSSKSNESNDSNESNVDKQDL
As to B2, the “reactivation of scrambled RNase A (RNase A activity at 296 nm)” value in data set [2] was “LmPDI is capable of restoring RNase A activity in a similar manner to that of bovine PDI”.

Source of the values: patent US20080199496A1.
